For 91 substances, abundance fitness results are on record in the Human Domainome abundance scans (Beltran et al. 2025).

± gives the uncertainty stated by the source.

The nature of the data set: abundance fitness (aPCA) (normalised: wild type 0, dead -1); higher = more abundant; growth selection in yeast, the domain comes from the species named. The settings on record: Homo sapiens.
Substance “SAFB-like transcription modulator L68C, Q9NWH9” yielded an abundance fitness of -0.092 ± 0.097.
The figure for “SAFB-like transcription modulator L68F, Q9NWH9” is -0.164 ± 0.09; for “SAFB-like transcription modulator L68G, Q9NWH9” it is -0.165 ± 0.086; for “SAFB-like transcription modulator L68H, Q9NWH9” it is 0.053 ± 0.29.
The figure for “SAFB-like transcription modulator L68I, Q9NWH9” is 0.295 ± 0.089; for “SAFB-like transcription modulator L68M, Q9NWH9” it is -0.188 ± 0.061; for “SAFB-like transcription modulator L68P, Q9NWH9” it is 0.022 ± 0.062.
Substance “SAFB-like transcription modulator L68Q, Q9NWH9” came in with an abundance fitness of -0.14 ± 0.075.
As to “SAFB-like transcription modulator L68R, Q9NWH9”, the abundance fitness is -0.165 ± 0.067.
Regarding “SAFB-like transcription modulator L68S, Q9NWH9”, the abundance fitness is -0.16 ± 0.063.
The figure for “SAFB-like transcription modulator L68T, Q9NWH9” is -0.135 ± 0.065.
“SAFB-like transcription modulator L68V, Q9NWH9”: the abundance fitness was -0.075 ± 0.063.
The figure for “SAFB-like transcription modulator L68W, Q9NWH9” is -0.181 ± 0.052; for “SAFB-like transcription modulator L68Y, Q9NWH9” it is -0.763 ± 0.31; for “SAFB-like transcription modulator N38A, Q9NWH9” it is -0.296 ± 0.063.
“SAFB-like transcription modulator N38D, Q9NWH9” returned an abundance fitness of -0.222 ± 0.086.
The figure for “SAFB-like transcription modulator N38E, Q9NWH9” is -0.153 ± 0.034.
The figure for “SAFB-like transcription modulator N38F, Q9NWH9” is -0.24 ± 0.083; for “SAFB-like transcription modulator N38G, Q9NWH9” it is -0.002 ± 0.047.
Regarding “SAFB-like transcription modulator N38H, Q9NWH9”, the abundance fitness was -0.492 ± 0.2.
The figure for “SAFB-like transcription modulator N38K, Q9NWH9” is -0.092 ± 0.047; for “SAFB-like transcription modulator N38L, Q9NWH9” it is -0.247 ± 0.05; for “SAFB-like transcription modulator N38M, Q9NWH9” it is -0.192 ± 0.057.
The figure for “SAFB-like transcription modulator N38P, Q9NWH9” is -1.06 ± 0.15; for “SAFB-like transcription modulator N38Q, Q9NWH9” it is -0.04 ± 0.046.
The figure for “SAFB-like transcription modulator N38R, Q9NWH9” is -0.141 ± 0.044; for “SAFB-like transcription modulator N38S, Q9NWH9” it is -0.105 ± 0.048.
In the case of “SAFB-like transcription modulator N38T, Q9NWH9”, the abundance fitness is -0.233 ± 0.073.
In the case of “SAFB-like transcription modulator N38V, Q9NWH9”, the abundance fitness is -0.688 ± 0.052.
In turn, “SAFB-like transcription modulator N38W, Q9NWH9” came in with an abundance fitness of -0.368 ± 0.037.
For the substance “SAFB-like transcription modulator N38Y, Q9NWH9”, the abundance fitness was -0.455 ± 0.11.
Substance “SAFB-like transcription modulator N65A, Q9NWH9” registered an abundance fitness of -0.236 ± 0.065.
The figure for “SAFB-like transcription modulator N65C, Q9NWH9” is -0.126 ± 0.074; for “SAFB-like transcription modulator N65D, Q9NWH9” it is -0.186 ± 0.082; for “SAFB-like transcription modulator N65E, Q9NWH9” it is -0.165 ± 0.069.
The substance “SAFB-like transcription modulator N65F, Q9NWH9” registered an abundance fitness of -0.101 ± 0.065.
The figure for “SAFB-like transcription modulator N65G, Q9NWH9” is -0.365 ± 0.052; for “SAFB-like transcription modulator N65H, Q9NWH9” it is -0.166 ± 0.084; for “SAFB-like transcription modulator N65K, Q9NWH9” it is -0.103 ± 0.038.
The figure for “SAFB-like transcription modulator N65L, Q9NWH9” is -0.206 ± 0.035.
Regarding “SAFB-like transcription modulator N65M, Q9NWH9”, the abundance fitness was -0.135 ± 0.055.
The figure for “SAFB-like transcription modulator N65P, Q9NWH9” is -0.575 ± 0.036; for “SAFB-like transcription modulator N65Q, Q9NWH9” it is -0.176 ± 0.076.
The figure for “SAFB-like transcription modulator N65R, Q9NWH9” is -0.094 ± 0.045; for “SAFB-like transcription modulator N65S, Q9NWH9” it is -0.162 ± 0.04.
For the substance “SAFB-like transcription modulator N65T, Q9NWH9”, the abundance fitness was -0.281 ± 0.059.
The figure for “SAFB-like transcription modulator N65W, Q9NWH9” is -0.339 ± 0.071.
As for “SAFB-like transcription modulator N65Y, Q9NWH9”, the abundance fitness is -0.191 ± 0.065.
The figure for “SAFB-like transcription modulator P63A, Q9NWH9” is -0.23 ± 0.053; for “SAFB-like transcription modulator P63C, Q9NWH9” it is -0.134 ± 0.04.
The figure for “SAFB-like transcription modulator P63D, Q9NWH9” is -0.553 ± 0.064.
“SAFB-like transcription modulator P63E, Q9NWH9” registered an abundance fitness of -0.337 ± 0.058.
“SAFB-like transcription modulator P63F, Q9NWH9” displayed an abundance fitness of -0.257 ± 0.045.
The figure for “SAFB-like transcription modulator P63H, Q9NWH9” is -0.397 ± 0.049; for “SAFB-like transcription modulator P63I, Q9NWH9” it is -0.165 ± 0.057; for “SAFB-like transcription modulator P63K, Q9NWH9” it is -0.354 ± 0.074.
The figure for “SAFB-like transcription modulator P63L, Q9NWH9” is -0.213 ± 0.038; for “SAFB-like transcription modulator P63M, Q9NWH9” it is -0.264 ± 0.068; for “SAFB-like transcription modulator P63N, Q9NWH9” it is -0.422 ± 0.045.
The figure for “SAFB-like transcription modulator P63Q, Q9NWH9” is -0.48 ± 0.082; for “SAFB-like transcription modulator P63R, Q9NWH9” it is -0.478 ± 0.053; for “SAFB-like transcription modulator P63S, Q9NWH9” it is -0.17 ± 0.049.
“SAFB-like transcription modulator P63T, Q9NWH9” had an abundance fitness of -0.053 ± 0.065.
Consider “SAFB-like transcription modulator P63V, Q9NWH9”, for which the abundance fitness is -0.09 ± 0.034.
Substance “SAFB-like transcription modulator P63W, Q9NWH9” gave an abundance fitness of -0.245 ± 0.059.
With “SAFB-like transcription modulator P63Y, Q9NWH9”, the abundance fitness is -0.214 ± 0.051.
The figure for “SAFB-like transcription modulator Q54A, Q9NWH9” is -0.167 ± 0.083; for “SAFB-like transcription modulator Q54C, Q9NWH9” it is -0.209 ± 0.087.
The figure for “SAFB-like transcription modulator Q54F, Q9NWH9” is -0.068 ± 0.1.
The figure for “SAFB-like transcription modulator Q54G, Q9NWH9” is -0.258 ± 0.069.
For the substance “SAFB-like transcription modulator Q54K, Q9NWH9”, the abundance fitness amounted to 0.057 ± 0.1.
The figure for “SAFB-like transcription modulator Q54L, Q9NWH9” is 0 ± 0.072.
In turn, “SAFB-like transcription modulator Q54M, Q9NWH9” gave an abundance fitness of -0.009 ± 0.1.
The substance “SAFB-like transcription modulator Q54N, Q9NWH9” showed an abundance fitness of -0.037 ± 0.24.
For “SAFB-like transcription modulator Q54P, Q9NWH9”, the abundance fitness is -0.666 ± 0.3.
The substance “SAFB-like transcription modulator Q54R, Q9NWH9” had an abundance fitness of -0.106 ± 0.045.
The figure for “SAFB-like transcription modulator Q54S, Q9NWH9” is -0.526 ± 0.1.
Consider “SAFB-like transcription modulator Q54T, Q9NWH9”, for which the abundance fitness stood at 0.146 ± 0.09.
Consider “SAFB-like transcription modulator Q54V, Q9NWH9”, for which the abundance fitness was -0.209 ± 0.078.
The figure for “SAFB-like transcription modulator Q54W, Q9NWH9” is -0.043 ± 0.08.
The figure for “SAFB-like transcription modulator Q54Y, Q9NWH9” is -0.497 ± 0.27; for “SAFB-like transcription modulator R26A, Q9NWH9” it is -0.12 ± 0.1.
Substance “SAFB-like transcription modulator R26C, Q9NWH9” yielded an abundance fitness of -0.57 ± 0.14.
For the substance “SAFB-like transcription modulator R26D, Q9NWH9”, the abundance fitness was 0.033 ± 0.15.
“SAFB-like transcription modulator R26E, Q9NWH9” displayed an abundance fitness of -0.191 ± 0.11.
“SAFB-like transcription modulator R26F, Q9NWH9” showed an abundance fitness of -0.268 ± 0.065.
The figure for “SAFB-like transcription modulator R26G, Q9NWH9” is -0.19 ± 0.08; for “SAFB-like transcription modulator R26H, Q9NWH9” it is -0.322 ± 0.23; for “SAFB-like transcription modulator R26K, Q9NWH9” it is -0.389 ± 0.14.
The figure for “SAFB-like transcription modulator R26L, Q9NWH9” is -0.131 ± 0.078.
Substance “SAFB-like transcription modulator R26M, Q9NWH9” yielded an abundance fitness of -0.098 ± 0.092.
